According to the supplement of paper PMC9732359:
± gives the uncertainty stated by the source.

Assay: protein stability index of a GFP-peptide fusion (yeast GPS) (PSI 1-4); higher = more stable; sorted into four equal gates, so the index is relative within each strain
Summary of the method: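 Sequencing reads from sorted gates were used to score each peptide. The library consisted of tiled 17-residue yeast protein peptides fused downstream of GFP on a Cherry-expressing plasmid, pooled and carried in yeast. Mid-log cultures in leucine-free medium were split into four equal gates by GFP/Cherry ratio, and each gate's plasmids were PCR-amplified and Illumina-sequenced. The protein stability index adds up, over all gates, the read frequency multiplied by the gate number.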

Sequence	protein stability index (doa10∆)	protein stability index (pdr5∆)	protein stability index (san1∆)	protein stability index (ubr1∆)
ADYNGALLRVTKSKNKT [POP4]	2.61 ± 0.066	2.14 ± 0.058	2.42 ± 0.077	2.36 ± 0.053
DKKNSSDPNNQSLNEMV [YJL039C/NUP192]	3.07 ± 0.1	3.24 ± 0.11	3.16 ± 0.087	3.35 ± 0.071
LQLELTIEDIAVAITRA [RPO31]	1.92 ± 0.057	2.12 ± 0.044	1.97 ± 0.058	2.07 ± 0.041
SVRLQVTKILPHLIIQN [IRR1]	1.65 ± 0.091	1.7 ± 0.064	1.72 ± 0.094	1.7 ± 0.06
LARGHRVEKIPEIPLVV [RPL4A]		3.42 ± 0.25		
KVTCSSNSSSSPPIIDL [MED1]	2.53 ± 0.044	2.76 ± 0.044	2.87 ± 0.032	2.74 ± 0.033
DFNMKLAINAKTITSGL [RPB2]	2.99 ± 0.087	3.06 ± 0.086	2.76 ± 0.061	2.99 ± 0.05
LFLNTGCLSVLYQSKGR [SRP68]	1.66 ± 0.054	1.55 ± 0.069	1.48 ± 0.12	1.25 ± 0.059
ASDLVLIVIDVVEGVTF [SNU114]	1.33 ± 0.041	1.58 ± 0.059	2.07 ± 0.1	2.38 ± 0.047
YITNADDSTKFQLVNDV [SIR3]	3.01 ± 0.11	3.18 ± 0.1	2.94 ± 0.092	3.24 ± 0.071
AGSGSTFIYGYCDKNFR [PRE3]	1.24 ± 0.085	1.42 ± 0.057	1.51 ± 0.099	1.49 ± 0.059
ETDEYISYTSHIEGVVI [RPN1]	3.13 ± 0.1	3.44 ± 0.17		3.08 ± 0.08
DKLWTLIPEDKRDQYLK [RPL28]	3.32 ± 0.19	2.88 ± 0.22	3.13 ± 0.07	3.18 ± 0.24
ILFELYKIKGRNNSKSV [SRP72]	2.04 ± 0.068	1.92 ± 0.061	2.75 ± 0.069	1.76 ± 0.062
ESLPQYVDFVPMYKELW [POP4]	2.12 ± 0.061	2.45 ± 0.056	2.5 ± 0.074	2.64 ± 0.048
QSLANIQYVTYLLTQQQ [SOH1]	2.23 ± 0.048	2.4 ± 0.045	2.19 ± 0.047	2.41 ± 0.033
NFLDAPGHVNFMDETAV [SNU114]	3.26 ± 0.16	3.28 ± 0.11	3.29 ± 0.068	3.08 ± 0.11
DDYVLRIFAIAFTRKQA [RPS1A]	1.77 ± 0.019	1.888 ± 0.017	1.94 ± 0.027	2.156 ± 0.015
YLLPDDFHFSTDRITRL [BRN1]	2.43 ± 0.056	2.5 ± 0.056	2.6 ± 0.063	2.79 ± 0.048
VKNVKNSDLEFNTFWDE [ARP9]	3.08 ± 0.088	3.13 ± 0.14	3.53 ± 0.11	3.46 ± 0.084
NAEKYFNNGDDDDYGDE [RPC31]	3.18 ± 0.099	2.67 ± 0.13	3.07 ± 0.066	3.16 ± 0.073
LKDIEARIKEKAGVKES [RPT1]	2.38 ± 0.27	3.42 ± 0.19	3.22 ± 0.11	3.31 ± 0.081
NQEDEKNLQRESCEDIL [RTT102]				3.17 ± 0.2
MLAAQDVAAKCKEVGIT [RPS14A]	2.38 ± 0.057	2.38 ± 0.061	2.07 ± 0.068	2.04 ± 0.041
ALRPSDIFGANAASGSN [YOR098C/NUP1]	2.67 ± 0.057	1.99 ± 0.044	2.22 ± 0.062	2.52 ± 0.059
PSLNNKISDDELERILK [RPB4]	3.09 ± 0.096	2.9 ± 0.098	3.06 ± 0.09	3.21 ± 0.07
SFTFASSKTSQPKPLFS [YOR098C/NUP1]	2.37 ± 0.042	2.44 ± 0.035	2.27 ± 0.046	2.69 ± 0.029
